These results are taken from patent US20210388087A1 (Chugai, published 2021).

Positions count from the first letter of the chain named.

B1: CE115HA000/GLS3000 R54A (antibody, IgG1, name in Kabat numbering, V domains shown)
VH: QVQLVESGGGVVQPGRSLRLSCAASGFTFSNAWMHWVRQAPGKGLEWVAQIKAKSNNYATYYAESVKGRFTISRDDSKNSLYLQMNSLKTEDTAVYYCRYVHYGAYYGVDAWGQGTTVTVSS
VL: DIVMTQSPLSLPVTPGEPASISCRSSQSLVHSNRNTYLHWYQQKPGQAPRLLIYKVSNAFSGVPDRFSGSGSGTDFTLKISRVEAEDVGVYYCGQGTQVPYTFGQGTKLEIK
notes: one-arm IgG1
B2: CE115HA000/GLS3000 S27eM (antibody, IgG1, name in Kabat numbering, V domains shown)
VH: B1 VH
VL: B1 VL with S32M, A59R
notes: one-arm IgG1
B3: CE115HA000/GLS3000 S25A (antibody, IgG1, name in Kabat numbering, V domains shown)
VH: B1 VH
VL: B1 VL with S25A, A59R
notes: one-arm IgG1
B4: CE115HA000/GLS3000 S25P (antibody, IgG1, name in Kabat numbering, V domains shown)
VH: B1 VH
VL: B1 VL with S25P, A59R
notes: one-arm IgG1
B5: CE115HA000/GLS3000 R77S (antibody, IgG1, name in Kabat numbering, V domains shown)
VH: B1 VH
VL: B1 VL with A59R, R82S
notes: one-arm IgG1
B6: CE115HA000/GLS3000 S27aN (antibody, IgG1, name in Kabat numbering, V domains shown)
VH: B1 VH
VL: B1 VL with S28N, A59R
notes: one-arm IgG1
B7: CE115HA000/GLS3000 S25L (antibody, IgG1, name in Kabat numbering, V domains shown)
VH: B1 VH
VL: B1 VL with S25L, A59R
notes: one-arm IgG1
B8: CE115HA000/GLS3000 S27eR (antibody, IgG1, name in Kabat numbering, V domains shown)
VH: B1 VH
VL: B1 VL with S32R, A59R
notes: one-arm IgG1
B9: CE115HA000/GLS3000 S26D (antibody, IgG1, name in Kabat numbering, V domains shown)
VH: B1 VH
VL: B1 VL with S26D, A59R
notes: one-arm IgG1
B10: CE115HA000/GLS3000 S27eE (antibody, IgG1, name in Kabat numbering, V domains shown)
VH: B1 VH
VL: B1 VL with S32E, A59R
notes: one-arm IgG1
B11: CE115HA000/GLS3000 R54D (antibody, IgG1, name in Kabat numbering, V domains shown)
VH: B1 VH
VL: B1 VL with A59D
notes: one-arm IgG1
B12: CE115HA000/GLS3000 S25V (antibody, IgG1, name in Kabat numbering, V domains shown)
VH: B1 VH
VL: B1 VL with S25V, A59R
notes: one-arm IgG1
B13: CE115HA000/GLS3000 R54Q (antibody, IgG1, name in Kabat numbering, V domains shown)
VH: B1 VH
VL: B1 VL with A59Q
notes: one-arm IgG1
B14: CE115HA000/GLS3000 R54E (antibody, IgG1, name in Kabat numbering, V domains shown)
VH: B1 VH
VL: B1 VL with A59E
notes: one-arm IgG1
B15: CE115HA000/GLS3000 S27eN (antibody, IgG1, name in Kabat numbering, V domains shown)
VH: B1 VH
VL: B1 VL with S32N, A59R
notes: one-arm IgG1
B16: CE115HA000/GLS3000 S27aD (antibody, IgG1, name in Kabat numbering, V domains shown)
VH: B1 VH
VL: B1 VL with S28D, A59R
notes: one-arm IgG1
B17: CE115HA000/GLS3000 S27eG (antibody, IgG1, name in Kabat numbering, V domains shown)
VH: B1 VH
VL: B1 VL with S32G, A59R
notes: one-arm IgG1
B18: CE115HA000/GLS3000 S25M (antibody, IgG1, name in Kabat numbering, V domains shown)
VH: B1 VH
VL: B1 VL with S25M, A59R
notes: one-arm IgG1
B19: CE115HA000/GLS3000 R54P (antibody, IgG1, name in Kabat numbering, V domains shown)
VH: B1 VH
VL: B1 VL with A59P
notes: one-arm IgG1
B20: CE115HA000/GLS3000 S27eI (antibody, IgG1, name in Kabat numbering, V domains shown)
VH: B1 VH
VL: B1 VL with S32I, A59R
notes: one-arm IgG1
B21: CE115HA000/GLS3000 S25T (antibody, IgG1, name in Kabat numbering, V domains shown)
VH: B1 VH
VL: B1 VL with S25T, A59R
notes: one-arm IgG1
B22: CE115HA000/GLS3000 S27eP (antibody, IgG1, name in Kabat numbering, V domains shown)
VH: B1 VH
VL: B1 VL with S32P, A59R
notes: one-arm IgG1
B23: CE115HA000/GLS3000 S25D (antibody, IgG1, name in Kabat numbering, V domains shown)
VH: B1 VH
VL: B1 VL with S25D, A59R
notes: one-arm IgG1
B24: CE115HA000/GLS3000 S27eH (antibody, IgG1, name in Kabat numbering, V domains shown)
VH: B1 VH
VL: B1 VL with S32H, A59R
notes: one-arm IgG1
B25: CE115HA000/GLS3000 S27aP (antibody, IgG1, name in Kabat numbering, V domains shown)
VH: B1 VH
VL: B1 VL with S28P, A59R
notes: one-arm IgG1
B26: CE115HA000/GLS3000 S27aE (antibody, IgG1, name in Kabat numbering, V domains shown)
VH: B1 VH
VL: B1 VL with S28E, A59R
notes: one-arm IgG1
B27: CE115HA000/GLS3000 R54W (antibody, IgG1, name in Kabat numbering, V domains shown)
VH: B1 VH
VL: B1 VL with A59W
notes: one-arm IgG1
B28: CE115HA000/GLS3000 S27aI (antibody, IgG1, name in Kabat numbering, V domains shown)
VH: B1 VH
VL: B1 VL with S28I, A59R
notes: one-arm IgG1
B29: CE115HA000/GLS3000 S27eV (antibody, IgG1, name in Kabat numbering, V domains shown)
VH: B1 VH
VL: B1 VL with S32V, A59R
notes: one-arm IgG1
B30: CE115HA000/GLS3000 S27eQ (antibody, IgG1, name in Kabat numbering, V domains shown)
VH: B1 VH
VL: B1 VL with S32Q, A59R
notes: one-arm IgG1
B31: CE115HA000/GLS3000 S26P (antibody, IgG1, name in Kabat numbering, V domains shown)
VH: B1 VH
VL: B1 VL with S26P, A59R
notes: one-arm IgG1
B32: CE115HA000/GLS3000 S27aG (antibody, IgG1, name in Kabat numbering, V domains shown)
VH: B1 VH
VL: B1 VL with S28G, A59R
notes: one-arm IgG1
B33: CE115HA000/GLS3000 S27aY (antibody, IgG1, name in Kabat numbering, V domains shown)
VH: B1 VH
VL: B1 VL with S28Y, A59R
notes: one-arm IgG1
B34: CE115HA000/GLS3000 S27eF (antibody, IgG1, name in Kabat numbering, V domains shown)
VH: B1 VH
VL: B1 VL with S32F, A59R
notes: one-arm IgG1
B35: CE115HA000/GLS3000 S25I (antibody, IgG1, name in Kabat numbering, V domains shown)
VH: B1 VH
VL: B1 VL with S25I, A59R
notes: one-arm IgG1
B36: CE115HA000/GLS3000 S27eL (antibody, IgG1, name in Kabat numbering, V domains shown)
VH: B1 VH
VL: B1 VL with S32L, A59R
notes: one-arm IgG1
B37: CE115HA000/GLS3000 S26E (antibody, IgG1, name in Kabat numbering, V domains shown)
VH: B1 VH
VL: B1 VL with S26E, A59R
notes: one-arm IgG1
B38: CE115HA000/GLS3000 S27eK (antibody, IgG1, name in Kabat numbering, V domains shown)
VH: B1 VH
VL: B1 VL with S32K, A59R
notes: one-arm IgG1
B39: CE115HA000/GLS3000 R54G (antibody, IgG1, name in Kabat numbering, V domains shown)
VH: B1 VH
VL: B1 VL with A59G
notes: one-arm IgG1
B40: CE115HA000/GLS3000 S27eT (antibody, IgG1, name in Kabat numbering, V domains shown)
VH: B1 VH
VL: B1 VL with S32T, A59R
notes: one-arm IgG1
B41: CE115HA000/GLS3000 R54S (antibody, IgG1, name in Kabat numbering, V domains shown)
VH: B1 VH
VL: B1 VL with A59S
notes: one-arm IgG1
B42: CE115HA000/GLS3000 R54T (antibody, IgG1, name in Kabat numbering, V domains shown)
VH: B1 VH
VL: B1 VL with A59T
notes: one-arm IgG1
B43: CE115HA000/GLS3000 S25E (antibody, IgG1, name in Kabat numbering, V domains shown)
VH: B1 VH
VL: B1 VL with S25E, A59R
notes: one-arm IgG1
B44: CE115HA000/GLS3000 S27eD (antibody, IgG1, name in Kabat numbering, V domains shown)
VH: B1 VH
VL: B1 VL with S32D, A59R
notes: one-arm IgG1

The target of the assay is T1, CD3 epsilon homodimer protein (UniProt P07766 23-126).
T1 construct: also called CD3 (CD3 epsilon)
T1 sequence (P07766 23-126): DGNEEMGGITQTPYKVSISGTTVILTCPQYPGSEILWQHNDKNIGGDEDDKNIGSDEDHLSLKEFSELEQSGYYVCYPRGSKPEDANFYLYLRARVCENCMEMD
Put plainly: SPR, antibody over immobilised CD3e homodimer.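 Note: SPR at 25 °C with CD3 epsilon homodimer amine-coupled to a CM4 sensor chip and antibody flowed over as analyte in HBS-EP+ running buffer.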 Background: In SPR one partner is held on a chip, and binding of the other changes the refractive index at the surface.
As for B1, the “KD ratio to GLS3000” value was 0.85.

On to B2, for which the “KD ratio to GLS3000” value worked out at 1.11.

For B3, the “KD ratio to GLS3000” value stood at 0.73.

Consider B4, for which the “KD ratio to GLS3000” value was 0.79.

As for B5, the “KD ratio to GLS3000” value worked out at 0.94.

Consider B6, for which the “KD ratio to GLS3000” value turned out to be 0.98.

On to B7, for which the “KD ratio to GLS3000” value was 4.93.

As for B8, the “KD ratio to GLS3000” value is 1.35.

On to B9, for which the “KD ratio to GLS3000” value was determined as 1.06.

Turning to B10, the “KD ratio to GLS3000” value is 1.04.

On to B11, for which the “KD ratio to GLS3000” value stood at 1.8.

Regarding B12, the “KD ratio to GLS3000” value stood at 0.74.

As for B13, the “KD ratio to GLS3000” value worked out at 1.04.

B14: the “KD ratio to GLS3000” value was 0.84.

Regarding B15, the “KD ratio to GLS3000” value worked out at 1.01.

As to B16, the “KD ratio to GLS3000” value stood at 0.94.

On to B17, for which the “KD ratio to GLS3000” value was determined as 1.03.

In the case of B18, the “KD ratio to GLS3000” value worked out at 1.6.

Consider B19, for which the “KD ratio to GLS3000” value was 1.05.

Turning to B20, the “KD ratio to GLS3000” value was 1.05.

As for B21, the “KD ratio to GLS3000” value was 0.75.

Turning to B22, the “KD ratio to GLS3000” value is 1.06.

B23: the “KD ratio to GLS3000” value is 8.86.

For B24, the “KD ratio to GLS3000” value was 1.09.

Take B25: the “KD ratio to GLS3000” value was determined as 1.01.

B26: the “KD ratio to GLS3000” value was determined as 0.94.

For B27, the “KD ratio to GLS3000” value was found to be 0.65.

B28: the “KD ratio to GLS3000” value was determined as 0.87.

Turning to B29, the “KD ratio to GLS3000” value was 0.95.

B30: the “KD ratio to GLS3000” value was 1.08.

Consider B31, for which the “KD ratio to GLS3000” value came out at 0.67.

As to B32, the “KD ratio to GLS3000” value was 0.8.

As for B33, the “KD ratio to GLS3000” value is 0.93.

As for B34, the “KD ratio to GLS3000” value stood at 1.16.

As to B35, the “KD ratio to GLS3000” value turned out to be 0.67.

Turning to B36, the “KD ratio to GLS3000” value was 1.06.

As to B37, the “KD ratio to GLS3000” value amounted to 0.9.

As for B38, the “KD ratio to GLS3000” value came out at 1.32.

Take B39: the “KD ratio to GLS3000” value was 0.88.

B40: the “KD ratio to GLS3000” value was 0.98.

In the case of B41, the “KD ratio to GLS3000” value was 0.78.

Consider B42, for which the “KD ratio to GLS3000” value worked out at 0.89.

In the case of B43, the “KD ratio to GLS3000” value was 8.54.

Take B44: the “KD ratio to GLS3000” value was determined as 1.23.
